5 molecules from paper PMC8660895, “Hedgehog-Interacting Protein is a multimodal antagonist of Hedgehog signalling” (Nature Communications, 2021) can be followed below.

One data set deals with T1, HHIP-N (Homo sapiens, UniProt Q96QV1).
T1 construct: EndoF1-deglycosylated for crystals
T1 sequence (Q96QV1 39-209): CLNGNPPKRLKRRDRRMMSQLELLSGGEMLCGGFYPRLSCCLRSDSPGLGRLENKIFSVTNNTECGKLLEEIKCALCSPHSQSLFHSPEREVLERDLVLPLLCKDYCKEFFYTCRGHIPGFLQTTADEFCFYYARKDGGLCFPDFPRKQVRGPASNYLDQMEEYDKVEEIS
In words: isothermal titration calorimetry. It is filed as binding. The conditions noted are these: pH 7.5, 25 °C, 150 mM NaCl, 3% isopropanol; PEG length and linkage of the conjugate not told. In general terms: ITC needs no label: the signal is the heat of the interaction.

The target in data set [1] is HHIP N-terminal domain (HHIP-N) (human) (UniProt Q96QV1). In words: SEC-MALS; HHIP-N on S200 10/30 column; 10 mM HEPES pH 7.5, 150 mM NaCl; 48–192 μM injected. A general note: SEC sorts molecules by how far they enter the pores of the column.
The target in a further data set is heparin. Put plainly: SPR. The conditions noted are these: GAGs immobilised on the chip; [HHIP-C] 0-40 µM; parent: 0.2 µM.
The target of another data set is heparan sulphate (HS). Put plainly: SPR. The conditions noted are these: GAGs immobilised on the chip; [HHIP-C] 0-40 µM; parent: 0.5 µM.
The target of data set [2] is chondroitin sulphate (CS). In words: SPR. The conditions noted are these: GAGs immobilised on the chip; [HHIP-C] 0-40 µM; parent: 0.7 µM.
The next data set deals with T2, HHIP-C (Homo sapiens, UniProt Q96QV1).
T2 construct: C-terminal domain (beta-propeller + 2 EGF repeats), residues 213-670, C-terminal His6 tag, HEK293T with kifunensine; EndoF1-deglycosylated for crystals; mostly monomer without GAG, anti-parallel dimer in crystal
T2 sequence (Q96QV1 213-670): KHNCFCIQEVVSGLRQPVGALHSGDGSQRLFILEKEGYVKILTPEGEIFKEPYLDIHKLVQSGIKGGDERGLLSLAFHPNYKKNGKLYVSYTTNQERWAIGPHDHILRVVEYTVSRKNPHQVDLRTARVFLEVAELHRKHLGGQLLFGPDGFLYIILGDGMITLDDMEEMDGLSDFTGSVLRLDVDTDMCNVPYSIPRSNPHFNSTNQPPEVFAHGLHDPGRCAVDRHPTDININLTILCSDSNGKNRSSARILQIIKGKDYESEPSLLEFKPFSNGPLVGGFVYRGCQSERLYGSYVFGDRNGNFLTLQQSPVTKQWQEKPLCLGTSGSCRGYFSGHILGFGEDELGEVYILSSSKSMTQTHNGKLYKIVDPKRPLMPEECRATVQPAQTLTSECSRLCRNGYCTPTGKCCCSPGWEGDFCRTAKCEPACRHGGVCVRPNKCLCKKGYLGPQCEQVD
Put plainly: X-ray crystallography (molecular replacement). It is filed as binding. The conditions noted are these: co-crystallised with 10 mM SOS, pH 8.5; two SOS molecules per chain, same site as heparin.

Data set [3] concerns the molecule itself. Put plainly: AUC; sedimentation velocity; HHIP-C alone at 1 mg/mL; 10 mM HEPES pH 7.5, 120 mM NaCl; 20 °C; c(s) distributions.

Where “and” joins values, the source holds several entries; their conditions need not be identical. Equal values may be shown once.

One may read the Kd as the equilibrium constant for the complex coming apart. With PEG-cholesterol, the Kd on HHIP-N came to 23 µM. By stoichiometry N is commonly meant the number of molecules, sites or subunits per partner or assembly. “HHIP N-terminal domain (HHIP-N) (from UniProt Q96QV1 39-209) (domain or fragment)” showed a stoichiometry N in data set [1] of 2. In the case of “HHIP C-terminal domain (HHIP-C) (from UniProt Q96QV1) K277E; R328E; R350E; K569E; R610E; R613E”, the Kd is 110 µM with heparin, 40 µM in the data set with heparan sulphate (HS) and 30 µM in data set [2]. With `O=S(=O)(O)OC[C@H]1O[C@@](COS(=O)(=O)O)(O[C@H]2O[C@H](COS(=O)(=O)O)[C@@H](OS(=O)(=O)O)[C@H](OS(=O)(=O)O)[C@H]2OS(=O)(=O)O)[C@@H](OS(=O)(=O)O)[C@@H]1OS(=O)(=O)O` [sucrose octasulphate], on HHIP-C, the “X-ray crystallography (molecular replacement)” value was “We also determined the crystal structure of a HHIP-C:SOS complex”.

B1: HHIP C-terminal domain (HHIP-C) (domain or fragment, human, UniProt Q96QV1 213-670, looked up)
chain: KHNCFCIQEVVSGLRQPVGALHSGDGSQRLFILEKEGYVKILTPEGEIFKEPYLDIHKLVQSGIKGGDERGLLSLAFHPNYKKNGKLYVSYTTNQERWAIGPHDHILRVVEYTVSRKNPHQVDLRTARVFLEVAELHRKHLGGQLLFGPDGFLYIILGDGMITLDDMEEMDGLSDFTGSVLRLDVDTDMCNVPYSIPRSNPHFNSTNQPPEVFAHGLHDPGRCAVDRHPTDININLTILCSDSNGKNRSSARILQIIKGKDYESEPSLLEFKPFSNGPLVGGFVYRGCQSERLYGSYVFGDRNGNFLTLQQSPVTKQWQEKPLCLGTSGSCRGYFSGHILGFGEDELGEVYILSSSKSMTQTHNGKLYKIVDPKRPLMPEECRATVQPAQTLTSECSRLCRNGYCTPTGKCCCSPGWEGDFCRTAKCEPACRHGGVCVRPNKCLCKKGYLGPQCEQVD
notes: Cloned in pHLsec; For crystallisation the protein was deglycosylated with endoglycosidase F1; also called HHIP-C WT; apo HHIP-C; source: HEK293T, transient transfection with kifunensine, purified from conditioned medium (HisTrap, SEC)
As to B1, in data set [3], the “stoichiometry N” value is 2 and 3.
